From PMC11746154

B1: Gal4AD-Spo11 [S. cerevisiae] / LexA-Rec102 [S. cerevisiae] (parent)
chain 1: MALEGLRKKYKTRQELVKALTPKRRSIHLNSNGHSNGTPCSNADVLAHIKHFLSLAANSLEQHQQPISIVFQNKKKKGDTSSPDIHTTLDFPLNGPHLCTHQFKLKRCAILLNLLKVVMEKLPLGKNTTVRDIFYSNVELFQRQANVVQWLDVIRFNFKLSPRKSLNIIPAQKGLVYSPFPIDIYDNILTCENEPKMQKQTIFPGKPCLIPFFQDDAVIKLGTTSMCNIVIVEKEAVFTKLVNNYHKLSTNTMLITGKGFPDFLTRLFLKKLEQYCSKLISDCSIFTDADPYGISIALNYTHSNERNAYICTMANYKGIRITQVLAQNNEVHNKSIQLLSLNQRDYSLAKNLIASLTANSWDIATSPLKNVIIECQREIFFQKKAEMNEIDARIFEYK
chain 2: MARDITFLTVFLESCGAVNNDEAGKLLSAWTSTVRIEGPESTDSNSLYIPLLPPGMLKIKLNFKMNDRLVTEEQELFTKLREIVGSSIRFWEEQLFYQVQDVSTIENHVILSLKCTILTDAQISTFISKPRELHTHAKGYPEIYYLSELSTTVNFFSKEGNYVEISQVIPHFNEYFSSLIVSQLEFEYPMVFSMISRLRLKWQQSSLAPISYALTSNSVLLPIMLNMIAQDKSSTTAYQILCRRRGPPIQNFQIFSLPAVTYNK

Variants of: B1
Test: Y2H quantitative β-galactosidase assay
Conditions: with LexA-Rec102 [S. cerevisiae]; parent: 1; read off a plot

Row | Variant | response (normalized β-gal units)
1 | chain 1 MAAEGLRKKYKTRQELVKALTPKRRSIHLNSNGHSNGTPCSNADVLAHIKHFLSLAANSLEQHQQPISIVFQNKKKKGDTSSPDIHTTLDFPLNGPHLCTHQFKLKRCAILLNLLKVVMEKLPLGKNTTVRDIFYSNVELFQRQANVVQWLDVIRFNFKLSPRKSLNIIPAQKGLVYSPFPIDIYDNILTCENEPKMQKQTIFPGKPCLIPFFQDDAVIKLGTTSMCNIVIVEKEAVFTKLVNNYHKLSTNTMLITGKGFPDFLTRLFLKKLEQYCSKLISDCSIFTDADPYGISIALNYTHSNERNAYICTMANYKGIRITQVLAQNNEVHNKSIQLLSLNQRDYSLAKNLIASLTANSWDIATSPLKNVIIECQREIFFQKKAEMNEIDARIFEYK [chain 1 L3A] | 0.27
2 | chain 1 MALEGLRKKYKTRQELVKALTPKRRSIHLNSNGHSNGTPCSNADVLAHIKHFLSLAANSLEQHQQPISIVFQNKKKKGDTSSPDIHTTLDFPLNAPHLCTHQFKLKRCAILLNLLKVVMEKLPLGKNTTVRDIFYSNVELFQRQANVVQWLDVIRFNFKLSPRKSLNIIPAQKGLVYSPFPIDIYDNILTCENEPKMQKQTIFPGKPCLIPFFQDDAVIKLGTTSMCNIVIVEKEAVFTKLVNNYHKLSTNTMLITGKGFPDFLTRLFLKKLEQYCSKLISDCSIFTDADPYGISIALNYTHSNERNAYICTMANYKGIRITQVLAQNNEVHNKSIQLLSLNQRDYSLAKNLIASLTANSWDIATSPLKNVIIECQREIFFQKKAEMNEIDARIFEYK [chain 1 G95A] | 0.17
3 | chain 1 MALEGLRKKYKTRQELVKALTPKRRSIHLNSNGHSNGTPCSNADVLAHIKHFLSLAANSLEQHQQPISIVFQNKKKKGDTSSPDIHTTLDFPLNGPHLCTHAFKLKRCAILLNLLKVVMEKLPLGKNTTVRDIFYSNVELFQRQANVVQWLDVIRFNFKLSPRKSLNIIPAQKGLVYSPFPIDIYDNILTCENEPKMQKQTIFPGKPCLIPFFQDDAVIKLGTTSMCNIVIVEKEAVFTKLVNNYHKLSTNTMLITGKGFPDFLTRLFLKKLEQYCSKLISDCSIFTDADPYGISIALNYTHSNERNAYICTMANYKGIRITQVLAQNNEVHNKSIQLLSLNQRDYSLAKNLIASLTANSWDIATSPLKNVIIECQREIFFQKKAEMNEIDARIFEYK [chain 1 Q102A] | 1.2
4 | chain 1 MALEGLRKKYKTRQEAVKALTPKRRSIHLNSNGHSNGTPCSNADVLAHIKHFLSLAANSLEQHQQPISIVFQNKKKKGDTSSPDIHTTLDFPLNGPHLCTHQFKLKRCAILLNLLKVVMEKLPLGKNTTVRDIFYSNVELFQRQANVVQWLDVIRFNFKLSPRKSLNIIPAQKGLVYSPFPIDIYDNILTCENEPKMQKQTIFPGKPCLIPFFQDDAVIKLGTTSMCNIVIVEKEAVFTKLVNNYHKLSTNTMLITGKGFPDFLTRLFLKKLEQYCSKLISDCSIFTDADPYGISIALNYTHSNERNAYICTMANYKGIRITQVLAQNNEVHNKSIQLLSLNQRDYSLAKNLIASLTANSWDIATSPLKNVIIECQREIFFQKKAEMNEIDARIFEYK [chain 1 L16A] | 0.3
5 | chain 1 MALEGLRKKYKTRQELVKAATPKRRSIHLNSNGHSNGTPCSNADVLAHIKHFLSLAANSLEQHQQPISIVFQNKKKKGDTSSPDIHTTLDFPLNGPHLCTHQFKLKRCAILLNLLKVVMEKLPLGKNTTVRDIFYSNVELFQRQANVVQWLDVIRFNFKLSPRKSLNIIPAQKGLVYSPFPIDIYDNILTCENEPKMQKQTIFPGKPCLIPFFQDDAVIKLGTTSMCNIVIVEKEAVFTKLVNNYHKLSTNTMLITGKGFPDFLTRLFLKKLEQYCSKLISDCSIFTDADPYGISIALNYTHSNERNAYICTMANYKGIRITQVLAQNNEVHNKSIQLLSLNQRDYSLAKNLIASLTANSWDIATSPLKNVIIECQREIFFQKKAEMNEIDARIFEYK [chain 1 L20A] | 0.35
6 | chain 1 MALEGLRKKYKTRQELVKALTPKRRSIHLNSNGHSNGTPCSNADVLAHIKHFLSLAANSAEQHQQPISIVFQNKKKKGDTSSPDIHTTLDFPLNGPHLCTHQFKLKRCAILLNLLKVVMEKLPLGKNTTVRDIFYSNVELFQRQANVVQWLDVIRFNFKLSPRKSLNIIPAQKGLVYSPFPIDIYDNILTCENEPKMQKQTIFPGKPCLIPFFQDDAVIKLGTTSMCNIVIVEKEAVFTKLVNNYHKLSTNTMLITGKGFPDFLTRLFLKKLEQYCSKLISDCSIFTDADPYGISIALNYTHSNERNAYICTMANYKGIRITQVLAQNNEVHNKSIQLLSLNQRDYSLAKNLIASLTANSWDIATSPLKNVIIECQREIFFQKKAEMNEIDARIFEYK [chain 1 L60A] | 0.62
7 | chain 1 MALEGLRKKYKTRQELVKALTPKRRSIHLNSNGHSNGTPCSNADVLAHIKHFLSLAANSLEQHQQPISIVFQNKKKKGDTSSPDIHTTLDFPLNGPHLCTHQFKAKRCAILLNLLKVVMEKLPLGKNTTVRDIFYSNVELFQRQANVVQWLDVIRFNFKLSPRKSLNIIPAQKGLVYSPFPIDIYDNILTCENEPKMQKQTIFPGKPCLIPFFQDDAVIKLGTTSMCNIVIVEKEAVFTKLVNNYHKLSTNTMLITGKGFPDFLTRLFLKKLEQYCSKLISDCSIFTDADPYGISIALNYTHSNERNAYICTMANYKGIRITQVLAQNNEVHNKSIQLLSLNQRDYSLAKNLIASLTANSWDIATSPLKNVIIECQREIFFQKKAEMNEIDARIFEYK [chain 1 L105A] | 0.05

Same assay, conditions: with Gal4AD-Spo11 [S. cerevisiae]; parent: 1; read off a plot

Row | Variant | response (normalized β-gal units)
8 | chain 2 MARDITFLTVFLESCGAVNNDEAGKLLSAWTSTVRIEGPESTDSNSLYIPLLPPGMLKIKLNFKMNDRLVTEEQELFTKLREIVGSSIRFWEEQLFYQVQDVSTIENHVILSLKCTILTDAQISTFISKPRELHTHAKGYPEIYYLSELSTTVNFFSKEGNYVEISQVIPHFNEYFSSLIVSQLEFEYPMVFSMISRLRLKWQQSSLAPISYALTSNSVLLPIMLNMIAQDKASTTAYQILCRRRGPPIQNFQIFSLPAVTYNK [chain 2 S233A] | 0.12
9 | chain 2 MARDITFLTVFLESCGAVNNDEAGKLLSAWTSTVRIEGPESTDSNSLYIPLLPPGMLKIKLNFKMNDRLVTEEQELFTKLREIVGSSIRFWEEQLFYQVQDVSTIENHVILSLKCTILTDAQISTFISKPRELHTHAKGYPEIYYLSELSTTVNFFSKEGNYVEISQVIPHFNEYFSSLIVSQLEFEYPMVFSMISRLALKWQQSSLAPISYALTSNSVLLPIMLNMIAQDKSSTTAYQILCRRRGPPIQNFQIFSLPAVTYNK [chain 2 R199A] | 0.02
